Results from US11267868 (dated 2022).
Positions count from the first letter of the chain named.

T1: FcgRIa (human, UniProt P12314)
T1 chain: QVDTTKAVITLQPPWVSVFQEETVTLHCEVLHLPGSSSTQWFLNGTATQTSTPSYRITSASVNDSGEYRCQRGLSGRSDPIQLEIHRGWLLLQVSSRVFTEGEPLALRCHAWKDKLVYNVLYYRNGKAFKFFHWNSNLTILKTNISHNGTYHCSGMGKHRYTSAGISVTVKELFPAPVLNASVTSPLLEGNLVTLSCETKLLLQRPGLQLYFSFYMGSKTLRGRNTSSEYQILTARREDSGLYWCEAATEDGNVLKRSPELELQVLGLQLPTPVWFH

T2: FcgRIIb (human, UniProt P31994)
T2 chain: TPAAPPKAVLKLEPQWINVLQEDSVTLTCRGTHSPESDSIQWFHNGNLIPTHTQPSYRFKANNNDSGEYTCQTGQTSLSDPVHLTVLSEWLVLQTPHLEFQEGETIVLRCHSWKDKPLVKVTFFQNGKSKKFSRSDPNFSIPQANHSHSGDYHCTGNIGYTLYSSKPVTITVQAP

T3: FcgRIIaH (human, UniProt P12318)
T3 chain: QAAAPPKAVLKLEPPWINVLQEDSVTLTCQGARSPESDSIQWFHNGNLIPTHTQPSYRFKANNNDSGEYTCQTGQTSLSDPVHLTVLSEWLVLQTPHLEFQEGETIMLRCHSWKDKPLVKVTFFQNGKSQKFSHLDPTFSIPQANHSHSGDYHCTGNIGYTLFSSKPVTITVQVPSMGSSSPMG

T4: FcgRIIaR (human, UniProt P12318)
T4 chain: T3 chain with H134R

B1: IL6R-P729/IL6R-L (antibody)
chain 1: QVQLQESGPGLVKPSETLSLTCAVSGHSISHDHAWSWVRQPPGEGLEWIGFISYSGITNYNPSLQGRVTISRDNSKNTLYLQMNSLRAEDTAVYYCARSLARTTAMDYWGEGTLVTVSSASTKGPSVFPLAPSSKSTSGGTAALGCLVKDYFPEPVTVSWNSGALTSGVHTFPAVLQSSGLYSLSSVVTVPSSSLGTQTYICNVNHKPSNTKVDKKVEPKSCDKTHTCPPCPAPELFGQDSVMLFPPKPKDTLMISRTPEVTCVVVDVSPEDPEVKFNWYVDGVEVHNAKTKPREEQENSTYRVVSVLTVLHQDWLNGKEYKCKVSNKALPAPIEKTISKAKGQPREPQVYTLPPSRDELTKNQVSLTCLVKGFYPSDIAVEWESNGQPENNYKTTPPVLDSDGSFFLYSKLTVDKSRWQQGNVFSCSVMHEALHNHYTQKSLSLSP
chain 2: not shown
B2: IL6R-P731/IL6R-L (antibody)
chain 1: B1 chain 1 with F237L, S326H
chain 2: not shown
B3: IL6R-P604/IL6R-L (antibody)
chain 1: B1 chain 1 with F237L, Q239G, P270H, S300A
chain 2: not shown
B4: IL6R-P690/IL6R-L (antibody)
chain 1: B1 chain 1 with F237L, P270H, A332H
chain 2: not shown
B5: IL6R-P659/IL6R-L (antibody)
chain 1: B1 chain 1 with F237L, P270H
chain 2: not shown
B6: IL6R-P688/IL6R-L (antibody)
chain 1: B1 chain 1 with F237L, Q239G, S326N
chain 2: not shown
B7: IL6R-P691/IL6R-L (antibody)
chain 1: B1 chain 1 with P270H
chain 2: not shown
B8: IL6R-P693/IL6R-L (antibody)
chain 1: B1 chain 1 with F237L, Q239G, M243F, P270H, S300A
chain 2: not shown
B9: IL6R-P655/IL6R-L (antibody)
chain 1: B1 chain 1 with F237L, Q239G, P270H, S326H
chain 2: not shown
B10: IL6R-P591/IL6R-L (antibody)
chain 1: B1 chain 1 with F237L, Q239G, P270H
chain 2: not shown
B11: IL6R-P658/IL6R-L (antibody)
chain 1: B1 chain 1 with Q239G, P270H
chain 2: not shown
B12: IL6R-P687/IL6R-L (antibody)
chain 1: B1 chain 1 with F237L, Q239G, M243F, P270H, E298Y, S300A, S326N, A332H
chain 2: not shown
B13: IL6R-P605/IL6R-L (antibody)
chain 1: B1 chain 1 with F237L, Q239G, M243F, P270H, E298D, S300A
chain 2: not shown
B14: IL6R-P656/IL6R-L (antibody)
chain 1: B1 chain 1 with F237L, Q239G, P270H, A332H
chain 2: not shown
B15: IL6R-P603/IL6R-L (antibody)
chain 1: B1 chain 1 with F237L, Q239G, P270H, V325I
chain 2: not shown
B16: IL6R-P735/IL6R-L (antibody)
chain 1: B1 chain 1 with A332H
chain 2: not shown
B17: IL6R-P737/IL6R-L (antibody)
chain 1: B1 chain 1 with F237L, S326H, A332H
chain 2: not shown
B18: IL6R-P602/IL6R-L (antibody)
chain 1: B1 chain 1 with F237L, Q239G, P270H, Q297V
chain 2: not shown
B19: IL6R-P726/IL6R-L (antibody)
chain 1: B1 chain 1 with F237L, P270H, S326H, A332H
chain 2: not shown
B20: IL6R-P689/IL6R-L (antibody)
chain 1: B1 chain 1 with F237L, Q239G, S326H
chain 2: not shown
B21: IL6R-P692/IL6R-L (antibody)
chain 1: B1 chain 1 with P270H, A332H
chain 2: not shown
B22: IL6R-P732/IL6R-L (antibody)
chain 1: B1 chain 1 with Q239G, S326H
chain 2: not shown
B23: IL6R-P657/IL6R-L (antibody)
chain 1: B1 chain 1 with F237L, Q239G, P270H, A332Y
chain 2: not shown
B24: IL6R-P728/IL6R-L (antibody)
chain 1: B1 chain 1 with P270H, S326H
chain 2: not shown
B25: IL6R-P660/IL6R-L (antibody)
chain 1: B1 chain 1 with F237L, Q239G, M243F, P270H, E298Y, S300A, S326N
chain 2: not shown
B26: IL6R-P654/IL6R-L (antibody)
chain 1: B1 chain 1 with F237L, Q239G, P270H, S326N
chain 2: not shown

These binders were tested against FcgRIIIaV (human, UniProt P08637) (assay: SPR).
FcgRIIIaV, sequence (P08637 17-208 F176V): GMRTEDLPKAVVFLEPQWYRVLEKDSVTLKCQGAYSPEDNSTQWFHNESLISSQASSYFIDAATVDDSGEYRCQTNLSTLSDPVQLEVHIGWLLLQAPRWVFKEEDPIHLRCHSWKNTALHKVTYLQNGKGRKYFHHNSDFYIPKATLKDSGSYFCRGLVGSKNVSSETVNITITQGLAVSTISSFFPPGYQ

| Binder | Kd [µM] |
| --- | --- |
| B1 | 56 |
| B2 | 53 |
| B3 | 40 |
| B4 | 63 |
| B5 | 73 |
| B6 | 44 |
| B7 | 48 |
| B8 | 40 |
| B9 | 46 |
| B10 | 44 |
| B11 | 71 |
| B12 | 42 |
| B13 | 44 |
| B14 | 50 |
| B15 | 83 |
| B16 | 73 |
| B17 | 68 |
| B18 | 61 |
| B19 | 36 |
| B20 | 52 |
| B21 | 57 |
| B22 | 76 |
| B23 | 65 |
| B24 | 50 |
| B25 | 30 |
| B26 | 48 |

Molecular target: T1, FcgRIa
Experiment: SPR

| Binder | Kd [µM] |
| --- | --- |
| B1 | 0.66 |
| B2 | 0.068 |
| B4 | 0.31 |
| B5 | 0.08 |
| B7 | 0.76 |
| B8 | 0.0078 |
| B9 | 0.018 |
| B10 | 0.024 |
| B11 | 0.83 |
| B12 | 0.007 |
| B13 | 0.0086 |
| B14 | 0.028 |
| B15 | 0.022 |
| B16 | 0.26 |
| B17 | 0.17 |
| B18 | 0.019 |
| B19 | 0.19 |
| B20 | 0.028 |
| B21 | 0.53 |
| B22 | 0.7 |
| B23 | 0.017 |
| B24 | 0.58 |
| B25 | 0.0074 |
| B26 | 0.016 |

Molecular target: T2, FcgRIIb
Experiment: SPR

| Binder | Kd [µM] |
| --- | --- |
| B1 | 4.4 |
| B2 | 10 |
| B3 | 5.5 |
| B4 | 4 |
| B5 | 6.4 |
| B6 | 4.1 |
| B7 | 4.3 |
| B8 | 5.6 |
| B9 | 2.7 |
| B10 | 3.1 |
| B11 | 1.4 |
| B12 | 5.1 |
| B13 | 5.3 |
| B14 | 1.9 |
| B15 | 2.7 |
| B16 | 2.3 |
| B17 | 6.4 |
| B18 | 2.4 |
| B19 | 4.1 |
| B20 | 4.7 |
| B21 | 2.7 |
| B22 | 2.9 |
| B23 | 3.1 |
| B24 | 3.9 |
| B25 | 5.3 |
| B26 | 2.6 |

Molecular target: T3, FcgRIIaH
Experiment: SPR

| Binder | Kd [µM] |
| --- | --- |
| B1 | 180 |
| B2 | 150 |
| B3 | 120 |
| B4 | 140 |
| B5 | 160 |
| B6 | 110 |
| B7 | 130 |
| B8 | 150 |
| B9 | 58 |
| B10 | 86 |
| B11 | 96 |
| B12 | 130 |
| B13 | 130 |
| B14 | 84 |
| B15 | 110 |
| B16 | 140 |
| B17 | 160 |
| B18 | 100 |
| B19 | 61 |
| B20 | 120 |
| B21 | 120 |
| B22 | 100 |
| B23 | 110 |
| B24 | 81 |
| B25 | 110 |
| B26 | 68 |

Molecular target: T4, FcgRIIaR
Experiment: SPR

| Binder | Kd [µM] |
| --- | --- |
| B1 | 83 |
| B2 | 110 |
| B3 | 64 |
| B4 | 74 |
| B5 | 85 |
| B6 | 58 |
| B7 | 72 |
| B8 | 68 |
| B9 | 42 |
| B10 | 37 |
| B11 | 33 |
| B12 | 81 |
| B13 | 60 |
| B14 | 39 |
| B15 | 47 |
| B16 | 59 |
| B17 | 120 |
| B18 | 44 |
| B19 | 66 |
| B20 | 78 |
| B21 | 56 |
| B22 | 72 |
| B23 | 47 |
| B24 | 74 |
| B25 | 50 |
| B26 | 39 |
